How the values were obtained:
SEC-MALS = molecular target: the molecule itself; assay: SEC-MALS
AUC = molecular target: the molecule itself; assay: AUC
SEC = molecular target: the molecule itself; assay: SEC

Row | Protein | stoichiometry N (SEC-MALS) | Kd (AUC) [µM] | stoichiometry N (SEC)
1 | Pcdh15 EC1-3 (wild type) (domain or fragment) not shown | 2 | 1.2 | –
2 | Pcdh15 EC1-3 Leu138Phe (domain or fragment) not shown | – | 15.3 | –
3 | Pcdh15 EC1-3 Asp255Lys/Lys345Asp (domain or fragment) not shown | – | – | 2

Reference: paper PMC6168201 (Neuron, 2018)
